Legend:
Experiment in all cases: cell_activity
[1] = system: GmUbi3_T01.1 Right TALEN (synthetic construct); details: pair with P1; soybean protoplasts, raw 0.72%; full site SEQ 25
[2] = system: GmUbi3_T02.1 Right TALEN (synthetic construct); details: pair with P3; soybean protoplasts, raw 1.70%; full site SEQ 26
[3] = system: GmUbi3_T02.1 Left TALEN (synthetic construct); details: pair with P4; soybean protoplasts, raw 1.70%; full site SEQ 26
[4] = system: GmUbi3_T03.1 Right TALEN (synthetic construct); details: pair with P5; soybean protoplasts, raw 4.98%; full site SEQ 27
[5] = system: GmUbi3_T03.1 Left TALEN (synthetic construct); details: pair with P6; soybean protoplasts, raw 4.98%; full site SEQ 27
[6] = system: GmUbi3_T01.1 Left TALEN (synthetic construct); details: pair with P2; soybean protoplasts, raw 0.72%; full site SEQ 25

Sequence: CCAACATTACACAACT (double strand) [GmUbi3_T1 right half-site]
- activity (% normalized mutation frequency) [1]: 0.91

Sequence: CCTTCACACAACTCAT (double strand) [GmUbi3_T2 right half-site]
- activity (% normalized mutation frequency) [2]: 2.76

Sequence: CTTCCATGCTTGTCAT (double strand) [GmUbi3_T2 left half-site]
- activity (% normalized mutation frequency) [3]: 2.76

Sequence: GCCTTGAGCTAGTTGT (double strand) [GmUbi3_T3 right half-site]
- activity (% normalized mutation frequency) [4]: 8.12

Sequence: TCATCAACTGTGGAGT (double strand) [GmUbi3_T3 left half-site]
- activity (% normalized mutation frequency) [5]: 8.12

Sequence: TGTCCTCCGTCTCCGT (double strand) [GmUbi3_T1 left half-site]
- activity (% normalized mutation frequency) [6]: 0.91

Reference: patent US20190359992
